Results reported in publication PMC6946400.

Legend:
[1] = tested on: VASH1 full-length 44 kDa; experiment: SPR; settings: single-cycle kinetics; HBS-EP: 10 mM Hepes pH 7.4, 150 mM NaCl, 3 mM EDTA, 0.005% surfactant P20 (stated for immobilization); SA chip, Biacore T200, protein 16.25-300 nM, 1:1 …
[2] = tested on: VASH1 27-kDa N-terminal part-GST; experiment: SPR; settings: HBS-EP: 10 mM Hepes pH 7.4, 150 mM NaCl, 3 mM EDTA, 0.005% surfactant P20 (stated for immobilization); SA chip, Biacore T200, protein 16.25-300 nM, 1:1 …

Substance | Kd [1] | Kd [2]
EMCV IRES | 9.6 nM | –
FGF1 IRES | 6.5 nM | 2800 nM
VEGFAa IRES | 8 nM | –
